Test results: the nanobody polyreactivity screen of Harvey et al. (2022)

Test: yeast display, Sf9 membrane polyspecificity reagent, FACS + sequencing; frameworks hold sequencing errors
Outline: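 Nanobodies came from a synthetic yeast display library in Saccharomyces cerevisiae BJ5465, induced with galactose for 36–48 hours and stained for 1 hour at 4 °C with 10% biotinylated, detergent-solubilized Sf9 membrane reagent. Cells were enriched on streptavidin microbeads and then FACS-sorted, with low and high (top ~1%) gates set on anti-HA fluorescence for expression and streptavidin fluorescence for reagent binding. Each polyreactivity label reflects the gate a clone came from. Genes were amplified by colony PCR, sequenced by MiSeq 2 × 250 and filtered by CDR length.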

Row | Sequence | polyreactivity (PSR sort gate)
1 | QVQLVESGGGLVQAGGSLRLSCAASGRTLSWYAMGWYRQAPGKERELVASISSGGGTYYADSVKGRFTISRDNAKNTVYLQMNSLKPEDTAVYYCAARYHYAKSPYRYYYWGQGTQVTVSS | high polyreactivity
2 | QVQLVESGGGLVQAGGSLRLSCAASGRTLTFYAMGWYRQAPVKERELVAAISRRAGSTYYADSVKGRFTISRDTAKNTVYLQMNSLKPEDTAVYYCAREPYSASHRYCLYRGYDYWGQGTQVTVSS | low polyreactivity
3 | QVQLVESGGGLVQAGGSLRLSCAASGRTLTGYDMGWYRQAPGKERELVAAITWSGGSTFYADSVKGRFTMSRYNAKNTVYLQMNSLKPEDTAVYYCNVTDVTEPSLIYGYYWGQGTQVTVSS | low polyreactivity
4 | QVQLVESGGGLVQAGGSLRLSCAASGRTLTIYAMGWYRPAPGKERELVAAINWSGGGTYYADSVKGRFTISRDNAKNTVYLQMNRLKPEDTAVYYCAAGRSFRGSYWYEYWGQGTQVTVSS | high polyreactivity
5 | QVQLVESGGGLVQAGGSLRLSCAASGRTLTQNAMGWYRQAPGKERELVATISWTAGSTYYADSVKGRFTISRDNAKNTVYLQMNSLKPEDTAVYYCAAVVFYSIYDYWGQGTQVTVSS | low polyreactivity
6 | QVQLVESGGGLVQAGGSLRLSCAASGRTLVLNMGWYRQAPGKERELVATINSGGSTYYADSVKGRFTISRDNAKNTVYLQMNSLKPEDTAVYYCAVLSSDGKFDYWGQGTQVTVSS | low polyreactivity
7 | QVQLVESGGGLVQAGGSLRLSCAASGRTLVLNMGWYRQAPGKQRELVATINSGGSTYYADSVKGRFTISRANAKNTVYLQMNSLKPEDSAVYYCAVLSSDGKFDYWGQGSQVTVSS | low polyreactivity
8 | QVQLVESGGGLVQAGGSLRLSCAASGRTLVPYAMGWYRQAPGKERELVAAINSSGGSTYYADSVKGRFTISRDNEKNTVYLQMNSLKPEDTAVYYCNVQSVHFRLWKDNYWGQGTQVTVSS | high polyreactivity
9 | QVQLVESGGGLVQAGGSLRLSCAASGRTLVRNAMGWYTQAPGKEREFVAGITESGDRTSYADSVKGRFTISRDNAKNTVYLQMNSLKPEDTAVYFCAASRPWDFYSFGFDYWGQGTQVTVSS | high polyreactivity
10 | QVQLVESGGGLVQAGGSLRLSCAASGRTLVWYTMGWYRQAPGKEREFVAVITTGSGSTYYADSVKGRFTISRDNAKNTVYLQMNSLKPEDTAVYYCNAGYGGYSYHYPPYEYWGQGTQVTVSS | low polyreactivity
11 | QVQLVESGGGLVQAGGSLRLSCAASGRTLVYAMGWYRQAPGKERELVATIYRGGNTYYADSVKGRFTISRDNAKNTVYLQMNSLKPEDTAVYYCNKPTYQWGQGTQVTVSS | high polyreactivity
12 | QVQLVESGGGLVQAGGSLRLSCAASGRTLVYNAMGWYRQAPGKERELVAAITTDGGDTYYADSVKGRFTISRDNAKNTVYLQMNSLKPEDTAVYYCAADYVALYYWYDYWGQGTQVTVSS | low polyreactivity
13 | QVQLVESGGGLVQAGGSLRLSCAASGRTLWANAMGWYRQAPGKERELVAAITYSGGSTHYADSVKGRFTISRDNAKNTVYLQMNSLKPEDTAVYYCNADYDSYYTYLYDYWGQGTQVTVSS | low polyreactivity
14 | QVQLVESGGGLVQAGGSLRLSCAASGRTLWLYTMGWYRQATGKERELVARSRSGGSTYYADSVKGRFTISRDNAKNTVYLQMNSLKPEDTAVYYCAAFPYWIHYEHYYWGQGTQVTVSS | high polyreactivity
15 | QVQLVESGGGLVQAGGSLRLSCAASGRTLWYYTMGWYRQAPGKERELVADITRGTSTNYADSVKGRFTISRDNAKNSVYLQMNSLKPEDTAVYYCNRAHGRSRYSRDYESWGQGTQVTVSS | low polyreactivity
16 | QVQLVESGGGLVQAGGSLRLSCAASGRTLWYYTMGWYRQAPGKERELVAVISTSGGRTYYADSVKGRFTISRDNAKNTVYLQMNSLKPEDTAVYYCAADGFQYTLGNYYWGQGTQVTVSS | high polyreactivity
17 | QVQLVESGGGLVQAGGSLRLSCAASGRTLYGNTMGWYRQAPGKERELVAAITNRGGSTTYADSVKGRFTISRDNAKNTVYLQMNSLKPEDTAVYYCNKDVTPLHYDSWGQGTQVTVSS | high polyreactivity
18 | QVQLVESGGGLVQAGGSLRLSCAASGRTLYGYAMGWYRQAPGKEREFVAAISRSGGRTYYADSVKGRFTISRDNAKNTVYLQMNSLKPEDTAVYYCAARQYQAKQPYGYYPGYGYWGQGTQVTVSS | high polyreactivity
19 | QVQLVESGGGLVQAGGSLRLSCAASGRTLYNYAKGWYRQAPGKERELDASITWSGGSTYYADSVKGRFTISRDYANNTVYLQMNSLKPEDTAVYYCAAESSPGTFVRYGYRRYYYWGQGTQVTVSS | low polyreactivity
20 | QVQLVESGGGLVQAGGSLRLSCAASGRTLYPYAMGWYRQAPGKERELVATITWGDGSTSYADSVKGRFTISRDNAKNTVYLQMNSLKPEDTAVYYCNVRISNTSYRYPTFDYWGQGTQVTVSS | low polyreactivity
21 | QVQLVESGGGLVQAGGSLRLSCAASGRTLYRNAMGWYRQAPGKERELVAAIKMRGGSTYADSVKGRFTISRDNAKNTVYLQMNSLKPEDTAVYYCAAASRSPYYYWGQGTQVTVSS | high polyreactivity
22 | QVQLVESGGGLVQAGGSLRLSCAASGRTLYRYAMGWYRQAPGKERELVAAIRSGGRTNYADSVKGRFTISRDNAKNTVYLQMNSLKPEDTAVYYCAARTLRYPSTYDYWGQGTQVTVSS | high polyreactivity

Row | Sequence | polyreactivity (PSR sort gate)
23 | QVQLVESGGGLVQAGGSLRLSCAASGRTLYSYAMGWYRQAPGKERELVAAITSGGRTYYADSVKGRFTISRDNAKNTVYLQMNRLTPEDTAVYYCNDRRTFPRYDRNYESWGQGTQVTVSS | high polyreactivity
24 | QVQLVESGGGLVQAGGSLRLSCAASGRTLYVYTMGWYRQAPGKERELVASISSGVGTNYADSVKGRFTISRDNAKNTVYLQMNSLKPEDTAVYYCAARFRYYRHYYWGQGTQVTVSS | high polyreactivity
25 | QVQLVESGGGLVQAGGSLRLSCAASGRTLYYYGMGWYRQAPGKERELVASITNGGNTNYADSVKGRFTISRDNAKNTVYLQMNSLKPEDTAVYYCAKDVPYWRPVVRYDYWGQGTQVTVSS | low polyreactivity
26 | QVQLVESGGGLVQAGGSLRLSCAASGRTSDVYAMGWYRQAPGKERALVAAISSGGSTSYADSVKGRFTISRDNAKNTVNLQMNSLKPEDTAVYYCAADSSGQSRFGYWGQGTQVTVSS | low polyreactivity
27 | QVQLVESGGGLVQAGGSLRLSCAASGRTSFGYAMGWYRQAPGKERELVAVISIGGTTYYADSVKGRFTISRDNAKNTVYLQMNSLKPEDTAVYYCAKDAETYYWGSYKSLYDYWGQGTQVTVSS | low polyreactivity
28 | QVQLVESGGGLVQAGGSLRLSCAASGRTSFNYTMGWYRQAPGKERELVAAITSGGDTYYADSVKGRFTISRDNAKNTVYLQMNSLKPEDTAVYYCNADPDFPSKFDDPYSYDYWGQGTQVNVSS | low polyreactivity
29 | QVQLVESGGGLVQAGGSLRLSCAASGRTSGFNTMGWYRQAPGKERELVAAISFSGGSTYYADSVKGRFTISRDNAKNTVYLQMNSLKPEDTAVYYCNALYRYLYRSGDYWGLGTQVTVSS | low polyreactivity
30 | QVQLVESGGGLVQAGGSLRLSCAASGRTSGFNTMGWYRQAPGKERELVAAISFSGGSTYYADSVKGRFTISRDNAKNTVYLQMNSLKPEDTAVYYCNALYRYLYRSGDYWGQGTQVTVSS | low polyreactivity
31 | QVQLVESGGGLVQAGGSLRLSCAASGRTSGFNTMGWYRQAPGKERELVAAISFSGGSTYYADSVKGRFTISRDYSKNTVYLQMNSLKPEDTAVYYCTALYRYLYRSGDYWGQGTQVTVSS | low polyreactivity
32 | QVQLVESGGGLVQAGGSLRLSCAASGRTSGVYSMGWYRQAPGKERELVAAISRSGDSTYYADSVKGRFTISRDNAKNTVYLQMNSLKPEDTAVYYCATTFKRSMYWGQGTQVTVSS | high polyreactivity
33 | QVQLVESGGGLVQAGGSLRLSCAASGRTSIGYARGWYRQAPGKERELVAVISIGGTTYYADSVKGRFTISRDNAKNTVYLQMNSLKPEDTAVYYCAADSFPAYLGFVGFDYWGQGTQVTVSS | low polyreactivity
34 | QVQLVESGGGLVQAGGSLRLSCAASGRTSILYAMGWYRQAPGKERELVATIYSGGRTYYADSVKGRFTISRDNAKNTVYLQMNSLKPEDTAVYYCAARPNATPRGQTKHYYWGQGTQVTVSS | high polyreactivity
35 | QVQLVESGGGLVQAGGSLRLSCAASGRTSKGNTMGWYRQAPGKEREFVATISRSGGSTYYADSVKGRFTISRDNAKNTVYLQMNSLKPEDTAVYYCAARISRQRSYSRDYWGQGTQVTVSS | high polyreactivity
36 | QVQLVESGGGLVQAGGSLRLSCAASGRTSLAYAMGWYRQAPGKERELVAAINTRGGSTYYADSVKGRFTISRDNAKNTVFLQINSLKPEDTAVYYCAKGPRLYFTRDKAHWKYDYWGQGTQVTVSS | low polyreactivity
37 | QVQLVESGGGLVQAGGSLRLSCAASGRTSLGYAMGWYRQAPGKERELVAAISGGTTYYADSVKGRCTISRDNAKNPVYLQMNSLKPEDTAVYYCNAVYVWFSGAPRRYTKRYYWGQGTQVTVSS | high polyreactivity
38 | QVQLVESGGGLVQAGGSLRLSCAASGRTSLRYSMGWYRQAPGKERELVAAITSSGATTYYADSVKGRFTISRDNAKNTVYLQMNSLKPEDTAVYYCAAVYSAKRGSGGFGYWGQGTQVTVSS | high polyreactivity
39 | QVQLVESGGGLVQAGGSLRLSCAASGRTSNFNAMGWYRQAPGKERELVAAINSDGSTYYADSVKGRFTISRDNAKNTVYLQMNSLKPEDTAVYYCAAVSLFRDSQFDYWGQGTQVTVSS | low polyreactivity
40 | QVQLVESGGGLVQAGGSLRLSCAASGRTSQYYAMGWYRPAPGKERELVASISRSGRTYYADSVKGRFTISRDNAKNTVYLQMNSLKPEDTAVYYCAAAKRTTHRYPYDYWGQGTQVTVSS | high polyreactivity
41 | QVQLVESGGGLVQAGGSLRLSCAASGRTSRHYAMGWYRQAPGKERELVAAISRSGGSTYYADSVKGRFTISRDNAKNTFYLQMNILKPDDSAVYYCNKDLKYYTSTYDYWGQGTQVTVSS | high polyreactivity
42 | QVQLVESGGGLVQAGGSLRLSCAASGRTSRYAMGWSRQAPGKERELVAAITSSGGRTYYADSVKGRFTISRDNAKNTVYLQMNSLKPEDTAVYYCAAGYLLWRTWDYAAGHNYWGQGTQVTVSS | high polyreactivity
43 | QVQLVESGGGLVQAGGSLRLSCAASGRTSSSNAMGWYRQAPGKERELVATISRTGSTYYADSVKGRFTISRDNAKNTVYLQMNSLKPEDTAVYYCNRYFSEALLHGSSYNRYYYWGQGTQVTVSS | low polyreactivity
